B1: wild-type human deoxythymidylate kinase (TMPK) [human] / itself (parent)
chain: MAARRGALIVLEGVDRAGKSTQSRKLVEALCAAGHRAELLRFPERSTEIGKLLSSYLQKKSDVEDHSVHLLFSANRWEQVPLIKEKLSQGVTLVVDRYAFSGVAFTGAKENFSLDWCKQPDVGLPKPDLVLFLQLQLADAAKRGAFGHERYENGAFQERALRCFHQLMKDTTLNWKMVDASKSIEAVHEDIRVLSEDAIRTATEKPLGELWK

Variants of: B1
Experiment: size-exclusion chromatography, protein concentration of fractions
Details: with itself, 200 µg enzyme loaded, 0.4 mL fractions
[1] = fraction F18 (monomer fraction)
[2] = fraction F19 (monomer fraction)
[3] = fraction F20 (monomer fraction)

screen value (fraction F15 (dimer fraction)) [mg/mL]	screen value (fraction F16 (dimer fraction)) [mg/mL]	screen value [1] [mg/mL]	screen value [2] [mg/mL]	screen value [3] [mg/mL]	Variant
0.004	0.005	0.016	0.019	0.012	chain 1 D128N
0.002	0.009	0.024	0.016	0.013	chain 1 P81L
0.006	0.01	0.019	0.015	0.012	chain 1 A99T
